Data taken from patent publication US20130330359A1 (AbbVie / Abbott, published 2013).

T1: carrier free RGMb (R&D Systems) (UniProt Q6NW40 46-413, limits assumed)
T1 construct: also called RGMb-CF
T1 sequence (looked up): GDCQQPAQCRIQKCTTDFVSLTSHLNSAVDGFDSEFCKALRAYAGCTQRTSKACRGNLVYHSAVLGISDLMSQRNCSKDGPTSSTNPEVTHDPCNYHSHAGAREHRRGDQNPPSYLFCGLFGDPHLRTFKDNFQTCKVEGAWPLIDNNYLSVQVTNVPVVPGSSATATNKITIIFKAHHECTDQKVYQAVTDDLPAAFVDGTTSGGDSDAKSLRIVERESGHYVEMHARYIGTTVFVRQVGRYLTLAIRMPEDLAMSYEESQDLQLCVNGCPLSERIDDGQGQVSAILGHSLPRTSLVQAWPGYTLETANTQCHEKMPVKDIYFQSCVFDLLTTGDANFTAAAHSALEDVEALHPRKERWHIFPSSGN

T2: RGMc antigen: amino acids 33-391 of RGMc followed by human Fc (human, UniProt Q6ZVN8 33-391)
T2 construct: also called RGMc-huFc; RGMc-Fc; not shown: human Fc
T2 sequence: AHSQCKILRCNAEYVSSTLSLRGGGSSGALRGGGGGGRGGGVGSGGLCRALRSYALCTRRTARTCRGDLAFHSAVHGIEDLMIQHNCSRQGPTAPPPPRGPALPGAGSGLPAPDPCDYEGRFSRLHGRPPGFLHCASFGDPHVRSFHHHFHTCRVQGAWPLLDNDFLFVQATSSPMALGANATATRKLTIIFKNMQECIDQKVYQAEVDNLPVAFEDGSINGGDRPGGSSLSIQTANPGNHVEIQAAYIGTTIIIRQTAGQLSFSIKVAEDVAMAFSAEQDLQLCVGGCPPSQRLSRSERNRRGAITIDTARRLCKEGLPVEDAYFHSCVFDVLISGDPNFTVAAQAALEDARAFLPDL


Tests used:
[1] = molecular target: T3, mouse:human chimeric antibody (used as human IgG / human IgG Fc antigen); assay: direct EIA: mouse:human chimeric antibody coated at 1.0 ug/mL; supernatant diluted 1:125; goat anti-mouse IgG Fc-HRPO
T3 construct: also called Hu IgG; human IgG Fc portion
Description: A mouse:human chimeric antibody or RGMc-huFc was coated on the solid phase of micro-titer EIA plates at 1.0 ug/mL. After the antigen had been coated on the solid phase, it was removed and any open binding sites on the plates were blocked using BSA block solution. The wells were washed with distilled water. Cell supernatants and control reagents were added to the blocked plates and allowed to incubate at room temperature for at least one hour. The negative control was a purified mAb from a different antigen system. The positive control for human IgG was a purified anti-hu IgG mAb developed against another antigen containing human IgG Fc carrier protein. The RGMc positive control is Novus mab 1C12. Following this incubation, the solutions were removed from the plates and they were washed with distilled water. Goat anti-mouse IgG Fc-HRPO (Jackson Immunoresearch) diluted to approximately 200 ng/mL in block solution was added to the plates and allowed to incubate for 30 minutes at room temperature. The plates were washed with distilled water and o-phenylenediamine substrate (Abbott Laboratories) was used as the chromogen to generate signal. Plates were read at 492 nm and the results were analyzed.

[2] = molecular target: T1, carrier free RGMb (R&D Systems); assay: direct EIA: carrier-free RGMb coated at 0.5 ug/mL; supernatant diluted 1:125; goat anti-mouse IgG-HRPO
Description: Clones were then tested for cross-reactivity with RGMa and RGMb by EIA. Carrier free RGMa, RGMb, or RGMc (R&D Systems) was coated on the solid phase of micro-titer EIA plates at 0.5 ug/mL. After the antigen had been coated on the solid phase, it was removed and any open binding sites on the plates were blocked using fish gel block solution. The wells were washed with distilled water following this incubation. Cell supernatants and control reagents were added to the blocked plates and allowed to incubate at room temperature for at least one hour. The negative control was a purified mouse mAb from a different antigen system. The positive control for RGMa, RGMb, & RGMc was a goat anti-RGMa, RGMb, or RGMc polyclonal antibody (R&D Systems). Following this incubation, the solutions were removed from the plates and they were washed with distilled water. Donkey anti-Goat IgG-HRPO diluted to approximately 200 ng/mL in block solution was added to the plates with the positive control test samples and goat anti-mouse IgG-HRPO (Jackson Immunoresearch) diluted to approximately 200 ng/mL in block solution was added to the plates with the fusion #1 test samples. All plates were allowed to incubate for 30 minutes at room temperature. The plates were washed with distilled water and o-phenylenediamine substrate was used as the chromogen to generate signal. Plates were read at 492 nm and the results were analyzed.

[3] = molecular target: T2, RGMc antigen: amino acids 33-391 of …; assay: chemiluminescence immunoassay: supernatant mAb captured on sheep anti-mouse IgG Fc, RGMc-huFc at 200 ng/mL, acridinium-labeled goat anti-RGMc detection
Description: Cell supernatant samples were analyzed for anti-RGMc antibodies by Chemiluminescence immunoassay (CIA). Sheep anti-mouse IgG Fc (Jackson Immunoresearch, West Grove, Pa.) was coated on 96 well micro-titer CIA plates (NUNC) at 5 ug/mL. After the capture reagent had been coated on the solid phase, it was removed and any open binding sites on the plates were blocked using a Fish gel/PBS (2% v/v) block solution. The wells were washed with distilled water and cell supernatants were added to the blocked plates and allowed to incubate at room temperature for at least one hour. The anti-mouse IgG Fc captures the anti-RGMc mouse antibody from the supernatant. Following the incubation, the supernatants were washed off using distilled water. A mouse/human IgG chimeric antibody (Abbott Laboratories) diluted in fish gel block to 5 ug/ml was added to each well and incubated for approximately 30 minutes at room temperature to block any captured mAbs that are specific for human IgG Fc portion of the immunogen. Following the incubation, the human IgG blocking solution was washed off using distilled water. RGMc-huFc antigen was then added to the plates at 200 ng/mL in fish gel block and incubated for 30 minutes at room temperature. Following this incubation, the antigen was washed from the plates using distilled water. Acridinium labeled goat anti-RGMc polyclonal antibody (R&D Systems, Minneapolis, Minn.) was diluted to 200 ng/ml in fish gel block, then added to the plates and allowed to incubate for 30 minutes at room temperature. The plates were washed with distilled water then processed on the Microbeta Jet instrument (Perkin Elmer, Waltham, Mass.). The Microbeta Jet adds Architect© Pre-Trigger and Trigger solutions (Abbott Laboratories). The plates are then read for flash chemiluminescence in luminescent counts per second (LCPS). […] The positive control (PC) used in this assay was spent medium from unfused splenocytes harvested from mouse #814 that were cultured for 7 to 10 days at 37° C.

absorbance at 492 nm [1] | absorbance at 492 nm [2] | LCPS [3] [LCPS] | Binder
0.06 | 0.06 | 6610 | 1A-2860-475 (antibody, V domains shown, The parent line 1A-2860 and subclone 1A-2860-177 used in the assays are treated here as the same antibody; also called 1A-2860-177) VH: DVLLQESGPDLVKPSQSLSLTCTVTGYSISSGYSWHWIRQFPGNKLEWMAYIHYTGNTNYNPSLKSRISITRDTSKNQFFLHLNSVTTEDTATYYCALFGLSGFWGQGTLVTVSA VL: DVLMTQTPLSLPVSLGDQASISCRSSQTIVHSNGNTYLDWYLQKPGQSPKVLIYKVSNRFSGVPDRFSGSGSGTDFTLKISRVEAEDLGVYFCLQGSHVPWTFGGGTQLEIKR
0.07 | 0.09 | 5260 | 1B-3363-715 (antibody, V domains shown, The parent line 1B-3363 and subclone 1B-3363-502 used in the assays are treated here as the same antibody; also called 1B-3363-502) VH: DVQLQESGPDLVKPSQSLSLTCTVTGYSITSGYSWHWIRQFPGNKLEWMGYIHYSGNTDYNPSLKSRISFTRDTSKNQFFLQLNSVTTEDTATYFCAIGTGPWGQGTTLTVSS VL: DVLMTQTPLSLPVSLGDQASISCRSSQNIVHSNGHTYLEWYLQKPGQSPKLLIYKVSNRFSGVPDRFSGSGSGTDFTLKISRVEAEDLGVYYCFQGSHVPWTFGGGTKLEIKR
0.06 | 0.07 | 2500 | 1A-2989-187 (antibody, V domains shown) VH: EVQLQQSGAELVRSGASVKLSCTASGFNIRDFYIHWVKQRPEQGLEWLGWIDPENGDIEYAPKFQGKATMTADTSSNTAYLQLNSLTSEDTALYYCNGNGYYLDYWGQGTTLTVSS VL: not shown
